What was measured:
[1] = biological target: RFP_PCNA1 (Arabidopsis thaliana) (UniProt Q9M7Q7); test: FRET or BRET; FLIM-FRET in nuclei of transiently transformed N. benthamiana leaf cells; donor GFP fusion, acceptor RFP fusion; E = (1 - tauDA/tauD) x 100%; FRET efficiency of free GFP/RFP (1.19%) used as threshold
[2] = biological target: RFP_PCNA2 (Arabidopsis thaliana) (UniProt Q9ZW35); test: as above
UniProt Q9ZW35, sequence (Q9ZW35 whole entry): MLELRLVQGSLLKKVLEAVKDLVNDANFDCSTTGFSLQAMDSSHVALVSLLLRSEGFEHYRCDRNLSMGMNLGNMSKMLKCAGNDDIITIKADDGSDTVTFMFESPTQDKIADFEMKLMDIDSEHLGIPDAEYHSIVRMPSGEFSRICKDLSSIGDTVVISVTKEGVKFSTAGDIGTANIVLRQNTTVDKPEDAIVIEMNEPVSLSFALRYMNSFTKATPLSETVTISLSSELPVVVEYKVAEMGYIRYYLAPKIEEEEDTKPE

UniProt Q9M7Q7, sequence (Q9M7Q7 whole entry, the tested form may be a part): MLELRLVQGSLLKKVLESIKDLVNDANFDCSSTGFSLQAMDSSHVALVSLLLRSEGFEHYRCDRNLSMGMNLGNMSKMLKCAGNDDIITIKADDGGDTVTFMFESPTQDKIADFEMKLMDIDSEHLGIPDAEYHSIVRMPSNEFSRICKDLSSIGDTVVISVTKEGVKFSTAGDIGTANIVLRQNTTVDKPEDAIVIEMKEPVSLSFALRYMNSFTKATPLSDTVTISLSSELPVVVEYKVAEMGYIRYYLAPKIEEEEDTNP

FRET efficiency [1] | FRET efficiency [2] | Substance
4.1% | 2.87% | CycD6;1_GFP (from UniProt Q9ZR04 1-302) (natural protein)
3.56% | 5.14% | CycD4;2_GFP (from UniProt Q0WQN9 1-298) (natural protein)
6.25% | 3.75% | CycD7;1_GFP (from UniProt Q9LZM0 1-341) (natural protein)
3.95% | 1.98% | CycD4;1_GFP (from UniProt Q8LGA1 1-308) (natural protein)
